Reference: PMC3302164 (Science Signaling, 2010)

Biological target: HA-PP2cA, expressed in HEK 293 cells (UniProt P67775 1-309)
Assay: co-IP

Chain of HA-PP2cA, expressed in HEK 293 cells (P67775 whole entry): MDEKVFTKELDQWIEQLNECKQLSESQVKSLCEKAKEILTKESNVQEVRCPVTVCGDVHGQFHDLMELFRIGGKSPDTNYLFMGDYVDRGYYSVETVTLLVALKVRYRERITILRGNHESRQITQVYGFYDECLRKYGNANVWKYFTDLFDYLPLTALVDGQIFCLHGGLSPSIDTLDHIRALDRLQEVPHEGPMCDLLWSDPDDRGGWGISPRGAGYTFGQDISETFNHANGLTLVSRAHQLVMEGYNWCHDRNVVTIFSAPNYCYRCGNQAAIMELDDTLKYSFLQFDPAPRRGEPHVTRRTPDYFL

B1: FLAG-KAP1 (wild type), expressed in HEK 293 cells (natural protein, human, UniProt Q13263 1-835, looked up)
chain: MAASAAAASAAAASAASGSPGPGEGSAGGEKRSTAPSAAASASASAAASSPAGGGAEALELLEHCGVCRERLRPEREPRLLPCLHSACSACLGPAAPAAANSSGDGGAAGDGTVVDCPVCKQQCFSKDIVENYFMRDSGSKAATDAQDANQCCTSCEDNAPATSYCVECSEPLCETCVEAHQRVKYTKDHTVRSTGPAKSRDGERTVYCNVHKHEPLVLFCESCDTLTCRDCQLNAHKDHQYQFLEDAVRNQRKLLASLVKRLGDKHATLQKSTKEVRSSIRQVSDVQKRVQVDVKMAILQIMKELNKRGRVLVNDAQKVTEGQQERLERQHWTMTKIQKHQEHILRFASWALESDNNTALLLSKKLIYFQLHRALKMIVDPVEPHGEMKFQWDLNAWTKSAEAFGKIVAERPGTNSTGPAPMAPPRAPGPLSKQGSGSSQPMEVQEGYGFGSGDDPYSSAEPHVSGVKRSRSGEGEVSGLMRKVPRVSLERLDLDLTADSQPPVFKVFPGSTTEDYNLIVIERGAAAAATGQPGTAPAGTPGAPPLAGMAIVKEEETEAAIGAPPTATEGPETKPVLMALAEGPGAEGPRLASPSGSTSSGLEVVAPEGTSAPGGGPGTLDDSATICRVCQKPGDLVMCNQCEFCFHLDCHLPALQDVPGEEWSCSLCHVLPDLKEEDGSLSLDGADSTGVVAKLSPANQRKCERVLLALFCHEPCRPLHQLATDSTFSLDQPGGTLDLTLIRARLQEKLSPPYSSPQEFAQDVGRMFKQFNKLTEDKADVQSIIGLQRFFETRMNEAFGDTKFSAVLVEPPPMSLPGAGLSSQELSGGPGDGP
  extent of interaction relative to that with PP1α, after doxorubicin: ~53%
